Consider 2 molecules from PMC8331134, “Increased expression of ANAC017 primes for accelerated senescence”.

Series [1] concerns the target T1, ANAC017 (lacking C-terminal transmembrane domain) (Arabidopsis thaliana, UniProt Q9XIC5 1-525).
T1 sequence: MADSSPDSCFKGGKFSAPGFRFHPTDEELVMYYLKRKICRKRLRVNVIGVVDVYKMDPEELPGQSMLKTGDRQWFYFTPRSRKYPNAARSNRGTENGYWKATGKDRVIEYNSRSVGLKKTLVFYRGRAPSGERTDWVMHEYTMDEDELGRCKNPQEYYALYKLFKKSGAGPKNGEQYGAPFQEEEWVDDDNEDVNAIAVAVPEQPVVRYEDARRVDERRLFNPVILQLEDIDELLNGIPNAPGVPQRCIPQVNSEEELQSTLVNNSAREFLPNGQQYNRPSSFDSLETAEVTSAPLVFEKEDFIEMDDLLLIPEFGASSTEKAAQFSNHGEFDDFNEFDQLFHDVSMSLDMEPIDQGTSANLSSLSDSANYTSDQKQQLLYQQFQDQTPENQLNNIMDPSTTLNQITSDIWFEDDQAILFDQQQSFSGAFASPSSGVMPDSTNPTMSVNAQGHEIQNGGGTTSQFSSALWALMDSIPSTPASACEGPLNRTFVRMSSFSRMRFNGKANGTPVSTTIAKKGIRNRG
Kind of series: EMSA; stronger than MDM2; Binding reactions as in Ng et al. 2013 (buffer, pH, temperature not given); 12% acrylamide 0.5x TBE gels. To be noted: protein: recombinant; tags: GST (pDEST15); chain copies: 2; label: 32P 5' end (T4 PNK).

Series [2] has as its target T1, ANAC017 (lacking C-terminal …). Kind of series: EMSA; clear shift, less than MDM1; Binding reactions as in Ng et al. 2013 (buffer, pH, temperature not given); 12% acrylamide 0.5x TBE gels. To be noted: protein: recombinant; tags: GST (pDEST15); chain copies: 2; label: 32P 5' end (T4 PNK). Background: Mobility shift assays separate free from complexed probe on a gel.

B1: ANAC016 intron 1 MDM1 probe (dsDNA)
DNA 1: GATGTAGTTGAGTATATGACAAGGAAAAGTTTTGGTTGTT
DNA 2: AACAACCAAAACTTTTCCTTGTCATATACTCAACTACATC
B1: the binding result in series [1] is “binds”.

B2: ANAC016 intron 1 MDM2 probe (dsDNA)
DNA 1: GATTTGTTGAGTATATGACAAGGAAACGTCTTTATTCACT
DNA 2: AGTGAATAAAGACGTTTCCTTGTCATATACTCAACAAATC
In the case of B2, in series [2], the binding result is “binds”.
